According to the DeepSol protein solubility set:

Experiment: soluble on expression in E. coli; label from the status in PepcDB or PDB records

| Sequence | soluble on expression in E. coli |
| --- | --- |
| MANIYLNIEADSAQELKEILSQLATDNVVEVTQSLNTADKKATEEVEKAAKKEPAKKKKATAKKKEEVSTASTSDTEPSKTGEKVAPTDSETEEVSATADLHLGATKADVQEAMRKAMDKGKRPMIKTCFSRYNAEKLSDLKEEHYGKFITDLETLVGE | not soluble |
| MVLRAKLLSWQEGVGSKTFEFDVDVEPRSYVISKVSQLSPIIASEDLTVCEGEVAVVGTRVIEIPENTVVRPVAAISHANGFVADVIECGAPGMVEDEKCINHAVFIPTRSGDVKEGDLLGMLRINFVRTGLLSRVILEHHHHHH | not soluble |
| MDDLTIEILTDDADYDLQRFDCGEEALNLFLTTHLVRQHRNKILRAYILCRNTPERQVLGYYTLCGSCFERAALPSKSKQKKIPYKNIPSVTLGRLAIDRSLQGQGWGATLVAHAMNVVWSASLAVGIHGLFVEALNEKAHTFYKSLGFIPLVGENENALFFPTKSIELLFTQSD | not soluble |
| MGSDKIHHHHHHMSVTINDTSSASSTQGLSSTTAVEKNSSADLQNQFLTLLVAQLKNQDPTNPMSNDQLVSQLAQLNTVSGIEKLNTTLGSISGQINNNQSMQASTLIGHSVMIPGKDILVGKETSTPFGVELEKAAEVVTVTVNDATGKAVRTIELGTLSAGVHSFNWDSKLADGTVAPDGAYTFTVAASTGGAQQVVQPLSYAVVNSVVRGDSGALLDLGLRGKATLDDVRQIL | not soluble |
| MLTDPIADMLTRIRNATRVYKESTDVPASRFKEEILRILAREGFIKGYERVDVDGKPYLRVYLKYGPRRQGPDPRPEQVIHHIRRISKPGRRVYVGVKEIPRVRRGLGIAILSTSKGVLTDREARKLGVGGELICEVW | soluble |
| MIYKSIAERLRIRLNSADFTLNSLLPGEKKLAEEFAVSRMTIRKAIDLLVAWGLVVRRHGSGTYLVRKDVLHQTASLTGLVEVLKRQGKTVTSQVLIFEIMPAPPAIASQLRIQINEQIYFSRRVRFVEGKPLMLEDSYMPVKLFRNLSLQHLEGSKFEYIEQECGILIGGNYESLTPVLADRLLARQMKVAEHTPLLRITSLSYSESGEFLNYSVMFRNASEYQVEYHLRRLHPEKS | soluble |
| MSLTSVVFLNPGNSTETFWVSYSQFMQAAARDLGLDLRILYAERDPQNTLQQARELFQGRDKPDYLMLVNEQYVAPQILRLSQGSGIKLFIVNSPLTLDQRELIGQSRQNYSDWIGSMVGDDEEAGYRMLKELLHKLGPVPAGHGIELLAFSGLKVTPAAQLRERGLRRALAEHPQVHLRQLVYGEWNRERAYRQAQQLLKRYPKTQLVWSANDEMALGAMQAARELGRKPGTDLLFSGVNSSPEALQALIDGKLSVLEAGHFTLGGWALVALHDDALGLDARRLGGPDWQLSLFQALTPAQARQLLRLGDQVGTRVDFRGLSAQGKPDSYRYPFGLQLLLREGHHHHHH | soluble |
| GPGSMARNKIALIGSGMIGGTLAHLAGLKELGDVVLFDIAEGTPQGKGLDIAESSPVDGFDAKFTGANDYAAIEGADVVIVTAGVPRKPGMSRDDLLGINLKVMEQVGAGIKKYAPEAFVICITNPLDAMVWALQKFSGLPAHKVVGMAGVLDSARFRYFLSEEFNVSVEDVTVFVLGGHGDSMVPLARYSTVAGIPLPDLVKMGWTSQDKLDKIIQRTRDGGAEIVGLLKTGSAFYAPAASAIQMAESYLKDKKRVLPVAAQLSGQYGVKDMYVGVPTVIGANGVERIIEIDLDKDEKAQFDKSVASVAGLCEACIGIAPSLK | soluble |
| GHMEVTLIVFHAGSLSVPFQEVEKEFSEYAERNLGIKVSFQDEASGSVMAVRKVTDLGRKADVIGVADYTLIPQLLIPNYTDFYVLFATNEIVIAFTDKSRYVEEMKSNPDKWYEILAREDVRFGFSDPNQDPCGYRSLMVIKLADLYYGKEIFKELIEENTNIYSNGTQIYAPKEITVNPGKIVIRPKETDLLGLVESGSIDYIFIYKSVAKQHNLSYITLPSEINLGDFSKEKFYGQISITLGSTGKTIKAKPIVYGVTVLKDAPNREVAIEFLRYLLSENGKRIFEKNHQDFL | soluble |
| MDLAAHIDHTLLKPTATLEEVAKAAEEALEYGFYGLCIPPSYVAWVRARYPHAPFRLVTVVGFPLGYQEKEVKALEAALACARGADEVDMVLHLGRAKAGDLDYLEAEVRAVREAVPQAVLKVILETGYFSPEEIARLAEAAIRGGADFLKTSTGFGPRGASLEDVALLVRVAQGRAQVKAAGGIRDRETALRMLKAGASRLGTSSGVALVAGEGGTLGY | soluble |
| MANVLCNRARLVSYLPGFCSLVKRVVNPKAFSTAGSSGSDESHVAAAPPDICSRTVWPDETMGPFGPQDQRFQLPGNIGFDCHLNGTASQKKSLVHKTLPDVLAEPLSSERHEFVMAQYVNEFQGNDAPVEQEINSAETYFESARVECAIQTCPELLRKDFESLFPEVANGQTNDSDWLEHHHHHH | soluble |
| LTDDPGSGFTTVWNAVVSELNGDPKVDDGPSSDANLSAPLTPQQRAWLNLVQPLTIVEGFALLSVPSSFVQNEIERHLRAPITDALSRRLGHQIQLGVRIAPPATDEADDTTVPPSENPATTSPDTTTDNDEIDDSAAARGDNQHSWPSYFTERPHNTDSATAGVTSLNRRYTFDTFVIGASNRFAHAAALAIAEAPARAYNPLFIWGESGLGKTHLLHAAGNYAQRLFPGMRVKYVSTEEFTNDFINSLRDDRKVAFKRSYRDVDVLLVDDIQFIEGKEGIQEEFFHTFNTLHNANKQIVISSDRPPKQLATLEDRLRTRFEWGLITDVQPPELETRIAILRKKAQMERLAVPDDVLELIASSIERNIRELEGALIRVTAFASLNKTPIDKALAEIVLRDLIADANTMQISAATIMAATAEYFDTTVEELRGPGKTRALAQSRQIAMYLCRELTDLSLPKIGQAFGRDHTTVMYAQRKILSEMAERREVFDHVKELTTRIRQRSKR | soluble |
| MSMQEMVTISIVTYNSRYIFNVLDQLKAELGTDSIYDIHIYDNHSETAYLEKLTTYEPFITIHRAEENQGFGHGHNQVLFNASTKYAIIFNPDVLVTKDVLDRLLNRIKIDKNIAVVSPKVLNEDGTTQYLVRQKLDVFDYMLRFIPFQFVKKIFDKRLSIYECRDLSDTETTDIKMGSGCFMLIDREKFVEIGGFDERFFMYFEDNDLCLRFGKAGYRILYTPFETVVHMYEKGAHKSRKLFKIFMQSMGKFFNKWGWRFFLEHHHHHH | soluble |
| MASTSTGLPPNWTIRVSRSHNKEYFLNQSTNESSWDPPYGTDKEVLNAYIAKFKNNGYKPLVNEDGQVRVSHLLIKNNQSRKPKSWKSPDGISRTRDESIQILKKHLERILSGEVKLSELANTESDCSSHDRGGDLGFFSKGQMQPPFEEAAFNLHVGEVSNIIETNSGVHILQRTG | soluble |
| MHEITLCQRALELIEQQAAKHGAKRVTGVWLKIGAFSCVETSSLAFCFDLVCRGSVAEGCKLHLEEQEAECWCETCQQYVTLLTQRVRRCPQCHGDMLQIVADDGLQIRRIEIDQE | soluble |
| MLTRTDGKGSKVLLIAAMDTKGTEARYIESWLAKAGFTTLIMDMGIRGKRPGPVAVTRDEVLRAAGKTWDDIQNVTSEGDAVDIMISGGVKCALALYKADLIQGVISLGGTMGTTLGTGVMRAFPIGFPKVMISTIAAKDTEAFIGNMDIFMLNSVSDLAGLNRITRKVLRNGALAIAGLVREREFHDEFSRPLAVLTTLGTTEATAARMRIHFEAWGYESVTFHTTGTGGQAMERMVNFEPVSAVVDLSLHELIDHHFGGAFDPGPERGRAALQKGIPTVIVPGNIDFLVTGPMAQAQIYFPGRRGHKHNANITCVRTSLEEIQRIAEIMAGYCNESTGPVAVLVPMKGFSCLDHEDGPQPDPEGPRVFAETFARALTRTIHFETVPLHINDEAFSEVIVGALQKIGGLRKIEADRLPSRQPATWSPYSSVHTLDRFSGNQHTTTETTGDALAALEHHHHHH | not soluble |
| MTKKDEVKELEVKNNIPEAEKKPFNKFGKQEKHTVEDVEYTFQFPGTRAAQAILDNSKGPSNTFSDVAYHSQLMDSVIVTPKLNWDYWDEHEGYREVMALADNFLGRMLN | not soluble |
